The values below come from patent publication US5569830.

This assay deals with polygalacturonase (endo-PG) from the culture filtrate of Botrytis cinerea DEL 11 (Botrytis cinerea DEL 11).

B1: pear polygalacturonase inhibitor protein (PGIP) purified from Pyrus communis L. cv Bartlett fruit (protein)
chain: DLCNPDDKKVLLQIKKAFGDPYVLASWKSDTDCCDWYCVTCDSTTNRINSLTIFAGQVSGQIPALVGDLPYLETLEFHKQPNLTGPIQPAIAKLKGLKSLRLSWTNLSGSVPDFLSQLKNLTFLDLSFNNLTGAIPSSLSELPNLGALRLDRNKLTGHIPISFGQFIGNVPDLYLSHNQLSGNIPTSFAQMDFTSIDLSRNKLEGDASVIFGLNKTTQIVDLSRNLLEFNLSKVEFPTSLTSVDINHNKIYGSIPVEFTQLNFQFLNVSYNRLCGQIPVGGKLQSFDEYSYFHNRCLCGAPLPSCK
modifications: glycoprotein: N-linked glycans (seven potential N-glycosylation sites; occupied sites not determined)
In the case of B1, the release of reducing sugars from sodium polypectate (reducing sugar assay) (times (against the tomato PGIPs)) turned out to be 20.
